Experimental data from article PMC1698263.

Molecular target: FMRP (fragile X mental retardation protein) (human, UniProt Q06787 1-632)
Assay: EMSA; FMRP 0.35-1.4 ug; 0.50 pmol RNA; FMRP EMSA: 30 min on ice, 6% nondenaturing PAGE; buffer, salt and pH not given (cited ref 18). Strand annealing assays (FMRP, I304N, dKHT, FXR1P) read RNA:RNA a

B1: hsa-miR-196a-1 mature miRNA (ssRNA)
RNA: UAGGUAGUUUCAUGUUGUUGG
binding result: binds
